From patent US12227762B2, “Spheroid culture method for neural stem cell” (Daegu Gyeongbuk Institute of Science and Technology, priority 2019, dated 2025)

What was measured:
rat ORN progenitor cells = assay: Spheroid culture of ORN progenitor cells on REP-coated or laminin-coated plates (spheroid formation, diameter); type: cell-based
Procedure: For a comparison between the culture in a vessel coated with a recombinant protein (REP, TGPG[VGRGD(VGPVPG)6]20WPC) and culture in a vessel coated with laminin in whether neural stem cells are cultured into spheroids, the rat ORN progenitor cells primary cultured in Example 1-1 above were plated on REP-coated or laminin-coated cell culture plates.
Specifically, before plating the isolated ORN progenitor cells, 96-well plates (Thermo Scientific, Waltham, USA) were coated with 100 μl of 3 μM REP diluted with PBS, and they were cultured in the humidified 37° C. culture incubator containing 5% CO2 for 1 hour. The REP was prepared by the previously described method (Jeon W B, Park B H, Wei J, Park R W (2011) J Biomed Mater Res A 97 (2): 152-7). After culturing for 1 hour in the humidified incubator, the REP solution was aspirated, and 1×10^6 cells/ml of the isolated ORN progenitor cell suspension was placed and stored in the humidified incubator. MEM medium (Welgene, Gyeongsan, Republic of Korea) containing fresh 0.5% FBS (GE Healthcare lifesciences, Brussel, Belgium), 0.5% penicillin streptomycin (Thermo Fisher, Waltham, USA), kanamycin (SIGMA), and gentamicin (SIGMA) was replaced every 24 hours.
Next, in order to check the optimal conditions for spheroid formation, the diameter and shape of the spheroids were observed according to the seeding populations and the concentration of REP by measuring the diameter of the formed spheroids.

[1] = test system: spheroid ORN progenitor cells; assay: qPCR of ORN developmental markers after differentiation of spheroid ORN progenitor cells on laminin-coated plate; type: cell-based, rat
Procedure: Spheroid ORN progenitor cells were differentiated and their developmental characteristics were monitored using qPCR and ICC.
Next, in order to analyze the differentiation of spheroid ORN progenitor cells in-depth, the transcriptional levels of ORN developmental markers such as ac3, omp, map2 and ncam, were analyzed by qPCR. Adenyl cyclase III (AC3), an important protein in the ORN, plays an important role in the olfactory signaling cascade. Olfactory marker protein (OMP) is also a protein found in fully matured ORNs. Microtubule associated protein 2 (MAP2) and NSE are expressed in differentiated neurons. Therefore, these markers were used as neuronal maturation markers. Neural cell adhesion molecule (NCAM) was used as a neural cell marker.

[2] = test system: ORN differentiated from spheroid cultured progenitor cells; assay: Calcium imaging assay of ORNs under odorant stimulation; type: cell-based, rat; conditions: for total calcium concentration stimulated by odor: odorant mixture
Procedure: To facilitate comparison with in vivo ORNs, the physiological properties of ORNs were validated using calcium imaging assays. The activity of the spheroid-cultured ORN progenitor cells was evaluated by transferring them to the laminin-coated plates, and measuring the change in fluorescence intensity by stimulating ORN activity with a mixture of odorant. In addition, the total-calcium concentration and response rate stimulated by odor were analyzed based on the results of calcium imaging.
Specifically, before performing the calcium imaging assay, the coverslip substrate was combined with a magnetic chamber (Live Cell instrument, Seoul, Korea), and the medium was replaced with KREBS Ringer's buffer containing 115 mM NaCl, 5.9 mM KCl, 2.5 mM CaCl2·2H2O, 1.2 mM MgCl2, 1.2 mM NaH2PO4, 10 mM HEPES sodium salt, and 10 mM D-glucose, and it was washed with PBS. Then, the cells were stained with fluo3-AM (life technologies, Waltham, USA). Fluorescence images of calcium markers were monitored using a confocal microscope. To stimulate the ORN, three odorants of 100 µM isovaleric acid (IVA), 2-isobutyl-3-methoxypyrazine (IBMP), and citralva, which are reported to activate the major signaling pathways of the ORN, and 100 µM of their mixture were applied to the magnetic chamber using a tubing connected to a syringe. The intracellular calcium concentration was calculated from the background corrected fluorescence ratio at 506/526 nm using a two-point calibration scheme and the equation [Ca]i=Kd(F0/Fs)(R−Rmin)/(Rmax−R).
Response rates were calculated as a ratio of the number of activated cell populations to the total number of cell populations in the confocal microscopy software.
Next, to determine the physiological properties of ORNs under single […] stimulation, the changes in intracellular calcium levels of ORNs and the changes in fluorescence intensity in cells a, b and c according to […] stimulation were monitored using 100 μM IBMP, 100 μM IVA, and 100 μM citralva.

[3] = Surface properties of coated coverslips by AFM and SEM; type: physicochemical
Procedure: In order to determine effects of the REP on spheroid formation, surface properties of REP-coated coverslips were observed using atomic force microscopy (AFM) and scanning electronic microscopy (SEM).
Specifically, for AFM and SEM image observation, glass coverslips were coated with 3 μM REP and 25 μg/ml laminin. To coat the coverslip with REP, 3 μM REP solution was poured onto the coverslip and incubated at 37° C. for 1 hour. Thereafter, the coverslip was washed three times with warmed autoclaved distilled water at 37° C. and dried in a hood. To prepare a laminin-coated coverslip, 25 μg/ml laminin was diluted with autoclaved distilled water and poured over the coverslip and the coverslip was stored at 37° C. overnight. Thereafter, the coverslip was washed three times with pressurized distilled water and dried with a critical point dryer (EM CPD 300; Leica, Wetzlar, Germany). AFM (XE-150; Park Systems, Suwon, Republic of Korea) was performed in non-contact mode with a scanning speed of 0.5 Hz. Before SEM observation, the coverslip was coated with osmium (Osmium plasma coater, Vacuum Devices Inc., Mito, Japan), and SEM was performed at a chamber pressure of […].

[4] = test system: spheroid ORN progenitor cells; assay: Calcein assay of cell viability of spheroid ORN progenitor cells; type: cell-based, rat; conditions: plate coated with 3 μM REP
Procedure: Since it is essential for neural stem cells to maintain cell viability while cultured into spheroids, a calcein assay was performed to evaluate the viability of ORN progenitor cells cultured into spheroids according to the cultivation time.
Specifically, calcein assay reagent (calcein red-orange, AM; Invitrogen, Carlsbad, USA) is used to evaluate cell viability. Spheroid ORN progenitor cells were washed three times with Dulbecco's phosphate-buffered saline (DPBS; Gibco® by Life Technologies™, Waltham, USA), treated with 3 μM calcein-AM solution, and cultivated at 37° C. for 30 minutes. Cell viability in each well was quantified by measuring optical density at 517 nm with a fluorescence reader (Gemini EM; Molecular Devices, San Jose, USA). The total OD517mm value was normalized to the value measured in spheroid ORN progenitor cells on the first day, and the decrease in fluorescence intensity indicates decrease in viability according to environmental conditions and cell loss according to changes of culture media.

[5] = test system: spheroid ORN progenitor cells; assay: qRT-PCR of stem cell markers in spheroid ORN progenitor cells; type: cell-based, rat; conditions: REP-coated plates
Procedure: In order to evaluate whether the spheroid-cultured ORN progenitor cells maintain a stemness, mRNA levels of stem cell markers were analyzed by quantitative real-time polymerase chain reaction (qRT-PCR). SOX2, Ki67, and nestin were used as specific marker genes for neural stem cells.
Specifically, total RNA was obtained from spheroid ORN progenitors using Trizol (Trizol® Reagent; Life technologies, Waltham, USA), and cDNA was synthesized by reverse transcription. qRT-PCR was performed under conditions of 40-45 repetitions at 95° C. for 30 sec, at 60° C. for 30 sec, and at 72° C. for 30 sec using a SYBR Green PCR Master Mix Kit (QuantiTect® SYBR® Green PCR Kit; QIAGEN, Hilden, Germany) on a Rotor-Gene Q (QIAGEN, Hilden, Germany). Primers of the sequences shown in Table 1 were purchased from GenoTeck (Daejeon, Korea) and Bionics (Daejeon, Korea). The housekeeping gene cyclophilin A was used as an internal standard.

[6] = test system: ORN differentiated from cryopreserved spheroid progenitor cells; assay: Cryopreservation, thawing and differentiation of spheroid ORN progenitor cells, calcium imaging; type: cell-based, rat; conditions: 5 day spheroids cryopreserved 35 days, thawed on laminin
Source text: Since the neural stem cells cultured into spheroids need to be stably preserved for a long period of time for efficient use, in order to determine whether or not the cell storage period is extended through cryopreservation, spheroid-cultured ORN progenitor cells were cryopreserved for 35 days and thawed to test their physiological properties.

[7] = day 3 spheroids, differentiated 72 hours on laminin-coated plate

Molecule: laminin [reference compound]
- culture outcome on coated plate (rat ORN progenitor cells; plate coated with laminin): neurites outgrowth occurred and the cells were differentiated without spheroid culture
- expression level of nsetin ([1]; laminin group, days 3, 5 and 10): about 0.1 fold

Molecule: CC(C)CC(=O)O [IVA, isovaleric acid, reference compound]
- activation of ORN cell a (intracellular calcium fluorescence) ([2]; single odorant, 100 μM): activated
- activation of ORN cell b (intracellular calcium fluorescence) ([2]; single odorant, 100 μM): activated
- activation of ORN cell c (intracellular calcium fluorescence) ([2]; single odorant, 100 μM): activated

Molecule: COc1nccnc1CC(C)C [IBMP, 2-isobutyl-3-methoxypyrazine, reference compound]
- activation of ORN cell a (intracellular calcium fluorescence) ([2]; single odorant, 100 μM): activated

Molecule: CC(C)=CCCC(C)=CC#N [citralva, reference compound]
- activation of ORN cell a (intracellular calcium fluorescence) ([2]; single odorant, 100 μM): activated
- activation of ORN cell c (intracellular calcium fluorescence) ([2]; single odorant, 100 μM): activated

B1: TGPG[VGRGD(VGVPG)6]20WPC (protein)
chain: TGPGVGRGDVGVPGVGVPGVGVPGVGVPGVGVPGVGVPGVGRGDVGVPGVGVPGVGVPGVGVPGVGVPGVGVPGVGRGDVGVPGVGVPGVGVPGVGVPGVGVPGVGVPGVGRGDVGVPGVGVPGVGVPGVGVPGVGVPGVGVPGVGRGDVGVPGVGVPGVGVPGVGVPGVGVPGVGVPGVGRGDVGVPGVGVPGVGVPGVGVPGVGVPGVGVPGVGRGDVGVPGVGVPGVGVPGVGVPGVGVPGVGVPGVGRGDVGVPGVGVPGVGVPGVGVPGVGVPGVGVPGVGRGDVGVPGVGVPGVGVPGVGVPGVGVPGVGVPGVGRGDVGVPGVGVPGVGVPGVGVPGVGVPGVGVPGVGRGDVGVPGVGVPGVGVPGVGVPGVGVPGVGVPGVGRGDVGVPGVGVPGVGVPGVGVPGVGVPGVGVPGVGRGDVGVPGVGVPGVGVPGVGVPGVGVPGVGVPGVGRGDVGVPGVGVPGVGVPGVGVPGVGVPGVGVPGVGRGDVGVPGVGVPGVGVPGVGVPGVGVPGVGVPGVGRGDVGVPGVGVPGVGVPGVGVPGVGVPGVGVPGVGRGDVGVPGVGVPGVGVPGVGVPGVGVPGVGVPGVGRGDVGVPGVGVPGVGVPGVGVPGVGVPGVGVPGVGRGDVGVPGVGVPGVGVPGVGVPGVGVPGVGVPGAAAVGRGDAVGVPGVGVPGVGVPGVGVPGVGVPGVGVPGAAWPC
modifications: TGPG[VGRGD(VGVPG)6]20WPC
notes: recombinant elastin-derived protein with VGVPG pentapeptide and RGD integrin receptor ligand, used as culture vessel coating
- spheroid diameter (rat ORN progenitor cells; 1 μM REP coating): approximately 20 μm
- spheroid morphology (rat ORN progenitor cells; 1 μM REP coating): unstable spheroid morphology and cell aggregation
- mean diameter of spheroids (rat ORN progenitor cells; 1 μM REP coating, 24 hours after cell inoculation): 24.2±0.7 μm
- mean diameter of spheroids (rat ORN progenitor cells; 3 μM REP coating, 3rd day): 77.5±3.3 μm
- mean diameter of spheroids (rat ORN progenitor cells; 3 μM REP coating, 24 hours after cell inoculation): 62.6±2.2 μm
- mean diameter of spheroids (rat ORN progenitor cells; 5 μM REP coating, 5th day): 69.4±3.6 μm
- mean diameter of spheroids (rat ORN progenitor cells; 5 μM REP coating, 24 hours after cell inoculation): 56.2±2.8 μm
- time for ORN progenitor cells to aggregate to form spheroids (rat ORN progenitor cells; plate coated with REP): ≤ 24 h
- height and roughness relative to laminin-coated surface ([3]; 3 μM REP vs 25 μg/ml laminin): 23.8 times
- roughness (AFM) ([3]; coverslip coated with 3 μM REP): 148.3±15.9 nm
- fluorescence intensity (cell viability) normalized to first day ([4]; 3rd day): 1.05±0.03 times
- fluorescence intensity (cell viability) normalized to first day ([4]; 10th day): 0.087±0.01 times
- normalized relative mRNA level of Ki67 ([5]; day 3): 8.6±0.8 fold
- normalized relative mRNA level of SOX2 ([5]; day 3): 8.4±0.8 fold
- normalized relative mRNA level of nestin ([5]; day 3): 11.7±1.1 fold
- NSE expression ([5]; days 3, 5 and 10): approximately 0.1 fold
- expression level of ac3 [1, 7]: 6.3±0.7 fold
- expression level of map2 [1, 7]: 8.7±0.5 fold
- expression level of nse [1, 7]: 9.1±0.8 fold
- expression level of omp [1, 7]: 6.3±0.7 fold
- total calcium concentration stimulated by odor ([2]; ORNs spheroid cultured for 3 days): 195.7 ± 24.0 nM
- total calcium concentration stimulated by odor ([2]; ORNs spheroid cultured for 5 days): 205.3 ± 24.9 nM
- total calcium concentration stimulated by odor ([2]; ORNs spheroid cultured for 10 days): 205.4 ± 22.3 nM
- response rate (activated cells / total cells) ([2]; cultivation time 3 days): 29.9±2.5%
- response rate (activated cells / total cells) ([2]; cultivation time 5 days): 27.6±3.0%
- response rate (activated cells / total cells) ([2]; cultivation time 10 days): 28.1±4.2%
- response rate stimulated by odor, compared to day 5 [6]: 72.3%
- total-calcium concentration stimulated by odor, compared to day 5 [6]: 72.5%
